Reference: the nanobody polyreactivity screen of Harvey et al. (2022)

assay: yeast display, Sf9 membrane polyspecificity reagent, FACS + sequencing; frameworks hold sequencing errors
Procedure, shortened: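 Genes from sorted yeast were amplified by colony PCR, read by MiSeq 2 × 250 sequencing and filtered on CDR length. These cells carried a synthetic nanobody library in Saccharomyces cerevisiae BJ5465 and were sorted by FACS into low and high (top ~1%) gates on anti-HA and streptavidin fluorescence. Polyreactivity is labelled according to the gate of origin.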

Row | Sequence | polyreactivity (PSR sort gate)
1 | QVQLVESGGGLVQAGGSLRLSCAASGFIYGRNAMGWYRQAPGKERELVAAINWRGGSTYYADSVKGRFTISRDNAKNTVYLQMNSLKAEDTAVYYCAARAPYRYGYDYWGQGTQVTLSS | high polyreactivity
2 | QVQLVESGGGLVQAGGSLRLSCAASGSTFYVYAMGWYRQAPRKERELVAAIDGSTGSTYYADSVKGRFTISRDNAKNTVYLQMNSLKPEDTAVYYCNADYYYEVDSWGQGTQVTVSS | low polyreactivity
3 | QVQLVESGGGIVQAGGSLRLSCAASGSTIDHYTMGWYSQAPGKERELVAAINRIGDSTYYADSVKGRFTISRDNAKNTVYLQMYSVNPEDTAVYYCAARHVPRFKNYGYWGQGTQVTVSS | high polyreactivity
4 | QVQLVESGGGLVQAGGTLRLSCAASGFTFRYYAMGWYRQAPGKERELVAAISRGGTTNYADSVKGRFTISRDNAKNTVYLQMNSLKPEDTAVYYCAARQYYSRVTYDYWGQGTQVTVSS | high polyreactivity
5 | QVQLVESGGGLVQAGGSLRLSCAASGNIFPRYAMGWYRQAPGKERELVARISSGGSTDYADSVKGRFTISRDNAKNTVYLQMNSLKPEDTAVYYCAAEYYSQTVNYRRVVGYGYWGQGTQVTVSS | high polyreactivity
6 | QVQLVESGGGLVQAGGSLRLSCAASGRIFPGYAMGWYRQAPGKERELVAAISERGGSTYYADSVKGRFTISRDNAKNTVYLQMNSLKPEDTAVYYCAAIWRGGYNYWGQGTQVTVSS | low polyreactivity
7 | QVQLVESGGGLVQAGGSLRLSCAASGIIFRNYAMGWYRQAPGKEREFVASITKRGGSTYYADSVKGRFTISRDNAKNTVYLQMNSLKPEDTAVYYCNTQWYRGRTEYGYWGQGTQVTVSS | high polyreactivity
8 | QVQLVESGGGLVQAGGSLRLSCAASGSTFTINVMGWYRQAPGKERELVAAINCGGRTNYADSVKGRFTISRDNAKNTVYLQMNSLKPEDTAVYNCAADGRSNVRQMDYWGQGTQVTVSS | low polyreactivity
9 | QVQLEESGGGLVQAGGSLRLSCAASGSTFYTNAMGWYRQAPGKERELVAAISASVGSTYYADSVKGRFTISRDNAKNTVYLQMNSLKPEDTAVYYCAADVWASRRYDYWGQGTQVTVSS | low polyreactivity
10 | QVQLVESGGGLVQAGGSLRLSCAASGITFYHYAMGWYRQAPGKERELVAAISVSGGRTYYADSVKGRFTISRDNAKITVYLQMNSLKPEDTAVYYCAKVSQVRGFYYWGQGTQVTVSS | high polyreactivity
11 | QVQLVESGGGLVQAGGSLRLSCTASGSTFVAYAMGWYRQAPGKERELVAAITSSGGRTYYADSVKGRFTISRDNAKNTVYLQMNSLKPEDTAVYYCAAVTHGRYDWGQGTQVTVSS | high polyreactivity
12 | QVQLVESGGGLVQAGGSLRLSCAASGSTFGQNAMGWYRQAPGKERELVAAITRRGVSTYYADSVKGRFTISRDNAKNTVYLQMNSLKPEDTAVYYCAKRYHPNSPYDYWGQGTQVTVSS | low polyreactivity
13 | QVQLVETGGGLVQAGGSLGLSCDASGSTFLYVRGWYRQAPGKERELVAAISESGGSPYYADSVKGRFTISRDNAKNTVYLQMNSLKPEDTAVYYCAADLPSGLQYRYYRVDYWGQGTQVTVSS | low polyreactivity
14 | QVQLVESGGGLVQAGGSLSLSCAASGRTFIRNAMGWYRQAPGKERELVAAINSGGITNYADSVKGRFTISRDNAKNTVYLQMNSLKPEDTAVYYCNARQVLFGLYLRAYPFEYWGQGTQVTVSS | low polyreactivity
15 | EEELVESGGGLVQAGGSLRLSCAASGSTFVSNAMGWYRQAPGKERELVAAISSSGGSTYYADSVKGRFTISRDNAKNTVYLQMNSLKPEDTAVYYCVDYYIGYTHNYNYWGQGTQVTVSS | low polyreactivity
16 | QVQLVESGGGLVQAGGSLRLSCAASGSIFYFNAMGWYRQAPGKERELVATIRSGDGRTYYADSVKGRFTISRDNAKNTVYLQMNSLKPEDTAVYYCNASRVVYRQAYLYGYDYWGQGTQVTVSS | low polyreactivity
17 | QVQLVESGGGLVQAGGSLRLSCAASGSTFLSYAMGWYRQAPGKERELVARITSSGGNTYYADSVKGRFTISRDNAKNTVYLQMNSLKPEDTAVYYCAVSLEDQQYIFDYWGQGTQVTVSS | low polyreactivity
18 | QVQLVESGGGLVQAGGSLRLSCAASGFIFGLYAMGWYRQAPGKERELVAAISGSGGSTYYADSVKGRFTISRDNAKNTVYLQMNSLKPEDTAVYYCNRAQGVHTYVYRYGYWGQGTQVTVSS | low polyreactivity
19 | QVQLVESGGGLVQAGGSLRLSCAASGFTFYHNAMGWYRQAPGKERELVAAISGGGDSTYYADSVKGRFTISRDNAKNTVYLQMNSLKPEDTAVYYCATRRYPEVVNGEYGYWGQGTQVTVSS | low polyreactivity
20 | QVQLVESGGGLVQAGGSLRLSCAASGRIFVFYVMGWYRQAPGKERELVAAITRTGGSTYYADSVKGRFTISRDNAKNTVYLQMNSLKPEDTAVYYCATRYTRLRHFDYWGQGTQVTVSS | low polyreactivity
21 | QVQLVETGGGLVQAGGSLRLSCAASGLTFKYYTKGWYRQAPGKERELVASISWSGGSTYYADSVKGRFTISRDNAKNTVYLQMNSLKPEDTAVYYCARRGYWGPGALGGGGYYWGQGTQVTVSS | high polyreactivity
22 | QVQLVESGGGLVQAGGSLRLSCAASGSTFSPNVMGWYRQAPGKERELVAAISSSTGSTNYADSVKGRFTISRDNAKNTVYLQMNSLKPEDTAVDYCAVDPYVHWTTKLYDYWGQGTLVTVSS | low polyreactivity

Row | Sequence | polyreactivity (PSR sort gate)
23 | QVHLVESGGGLVQAGGSLRLSCAASGRTFQYNAMGWYRQSPGTERELVAAISWRGARTYYADSVKGRFTISRDYAKNTVYLQMNSLNPEDTAVYYCAAAPYGYRRYEYWGQGTQVTVSS | high polyreactivity
24 | QVQLVESGGGLVQAGGSLRLICAASGSTFTRYAMGWYRQAPGKERELVAAITSSGSRTYYADSVKGRFTISRDNAQNTVYLQMNSLKPEDTAVYYFAALGDTRYVGMDHWGQGTQVTVSS | high polyreactivity
25 | QVQLVESGGGLVQAGGSLRLSCAASGIISSFYAMGWYRQAPGKERELVAAINWSGDSTYYADSVKGRFTISRDNAKNTVYLQMNSLKPEDTAVYYCAADYYGFYDEHDYWGQGTKVTVSS | low polyreactivity
26 | QVQLVESGGGLDQAGGSLRLSCAASGSTFSGYAMGWYRQAPGKERELVATITRRGGNTYYADSVKGRFTISRDNAKNTVYLQMNSLKPEDTAVYYCAKDGRVHSPYDYWGQGTQVTVSS | low polyreactivity
27 | QVQLVESGGGLVQAGGSLRLSCAASGFTIGRYAMGWYRQAPGKERELVAAISKNGGRTYYADSVKGRFTISRDNAKNTVYLQMNSLKPEDTAVYYCNTDWYYTGRVHGFDYWGQGTQVTVSS | high polyreactivity
28 | QVQLVESGGGLVQAGGSLRLSCAASGSIFRYYVMGWYRQAPGKERELVAAISTGDRTNYADSVKGRFTISRDNAKNTVYLQMNILKPEDTAVYYCNADYVVGWARLEFNYWGQGTQVTVSS | low polyreactivity
29 | QVQLVESGGGLVQAGGSLRLSCAASGRTFLVNAMGWYRQAPGKEREFVAAITSRSSGSTYYADSVTGRFTISRDKAKNTVYFQLNSQKPEDTAVYYCAARGHLRYESDYWGQGTQVTVSS | high polyreactivity
30 | QVQLVESGGGLVQAGGSLRLSCAASGSTFKVYAMGWYRQAPGKERELVAAISQSGGSTYYADSVKGRFTITRDNAKNTVYFQMKSLKPEDTAVYYCAVRTYVYHWSFSSLPYDYWGQGTQVTVSS | high polyreactivity
31 | QVQLVESGGGLVQAGGSLRLSCAASGSILVAYAMGWYRQAPGKERELVAAITQGGGSTYYADSVKGRFTISRDNAKNTVYLQMNSLKPEDTAVYYCNVGANVYLLYFPSRGGVYDYGYWGKGTQVTVSS | low polyreactivity
32 | QVQLVESGGGLVQAGGSLRLSCAASGFIVASNAMGGDRQAPGKVRELLAAINSSAGSTYYADSVKGRFTISRDNAKNTVYLQMNSQKPEDTAVYYCNRDDGSVYRRHRRPYYYWGQRTQVTVSS | low polyreactivity
33 | QVQLVESGGGLVQAGGSLRLSCAASGFTFGVYAMGWYRQAPGKERELVAAITWSGGRTYYADSVKGRFTISRDNAKNTVYLQMNSLKPEDTAVYYCAAVFYRYNAVRYDYWGQGTQVTVSS | high polyreactivity
34 | QVQLVESGGGLVQAGGSLRLSCAASGRIINSNAMGWYRQAPGKERELVAAISTTGGRTYYADSVKGRFTISRDNAKNTVYLQMNSLKPEDTAVYYCNRLYRYLVWPAGEYDYWGQGTQVTVSS | high polyreactivity
35 | QVQLVESGGGLVQAGGSLRLSCAASGSIFYWYAMGWYRQAPGKERELVAAISSGGSTNYADSVKGRFTISRDNAKNTVYLQMNSLKPEDTAVYYCNADIRSFYWEYYTGLDSWGQVTQVTVSS | low polyreactivity
36 | QVQRVESGGGLVQAGGSLRLSCAASGITFGIYVMGWYRQAPGKETELVATISRSDDNTYYADSVKGRFTISRDNAKNTVYLQMNSLKPEDTAVYYCAADGVISAWYSSRDDYWGQGTQVTVSS | low polyreactivity
37 | QVQLVESGGGLVQAGGSLRLSCAASGSTLVYNDMGWYRQAPGKERELGATITGTDSTYYADSVKGRFTISRDNAKNTVYLQMNSLKPEDTADCAADRAASRPDYDYWGQGTQVTVSS | low polyreactivity
38 | QVQLVESGGGLVQAGGSLRLSCAASGSIFSYYAMGWYRQAPGKERELVADISFTGDSTYYADSVKGRFTISRDNAKNTVYLQMNSLKPEDTAVYYCAKDEIIAVYFEYDYWGQGTQVTVSS | low polyreactivity
39 | QVQLVESGRGLVQAGGSLRLSCAASGRTFVYYAMGWYRQAPGKERELVAAISRSGSTYYADSVKGRFTISRDNAKNTVYLQMNSLKPEDTAVYYCARPGGPDRTSSPYPYPYGYWGQGTQVTVSS | low polyreactivity
40 | QVQLVESGGGLVQAGGRLRLSCAASGSIFVPNAMGGYRQAPGKERELVAAISGIGGSTSYADSEKGRFTISRDNAKNTVDLHMNSLQQEDTAVYYCARADKLHTRGWGRWGSGSYSWGQGTQVTVSS | low polyreactivity
41 | QVHLVESGGGLVQAGGSLRLSCAASGLIFGGYAMGWDRQAPGKERELVAAISSNSGSTYYADSVKGRFTISRDNAKNTVYLQMNSLKPEDTAVYYCIRYFYQGFDYWGQGTQVTVSS | high polyreactivity
42 | QVQLVESGGGLVQAGGSLRLSCAASGSTFQYYAMGWYRQAPGKERELVAAITHSGTRTYYADSVKGRFTISRDNAKNTVYLQMNSLKPEDTAVYYCAARGYGKYDYWGQGTQVTVSS | high polyreactivity
43 | QVQLVESGGGLVQAGGSLRLSCAASGSTFGYYAMRWYRQAPGKERELVAAIRSSGGGTYYADSVKGRFTISRDNAKNTVYLQMNSLKPEDTAVYYCATDAPILVNAEYDEWLEYDYWGQGTQVTVSS | low polyreactivity
